Measurements: patent publication US20160237156A1 (CALIFORNIA INSTITUTE FOR BIOMEDICAL RESEARCH, published 2016)

T1: Human neutrophil elastase (Elastin Products Company, Inc.) (human, UniProt P08246 30-247, limits assumed)
T1 sequence (looked up): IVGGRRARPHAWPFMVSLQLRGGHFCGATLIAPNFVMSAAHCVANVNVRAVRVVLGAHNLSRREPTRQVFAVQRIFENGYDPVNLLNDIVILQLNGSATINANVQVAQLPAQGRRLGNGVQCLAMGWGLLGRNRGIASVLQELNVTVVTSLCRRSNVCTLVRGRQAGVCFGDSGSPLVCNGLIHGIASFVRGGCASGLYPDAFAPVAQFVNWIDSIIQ


Experiments:
[1] = target: CXCR4 (human, UniProt P61073 1-352); assay: cell-based or functional assay
CXCR4, sequence (P61073 whole entry): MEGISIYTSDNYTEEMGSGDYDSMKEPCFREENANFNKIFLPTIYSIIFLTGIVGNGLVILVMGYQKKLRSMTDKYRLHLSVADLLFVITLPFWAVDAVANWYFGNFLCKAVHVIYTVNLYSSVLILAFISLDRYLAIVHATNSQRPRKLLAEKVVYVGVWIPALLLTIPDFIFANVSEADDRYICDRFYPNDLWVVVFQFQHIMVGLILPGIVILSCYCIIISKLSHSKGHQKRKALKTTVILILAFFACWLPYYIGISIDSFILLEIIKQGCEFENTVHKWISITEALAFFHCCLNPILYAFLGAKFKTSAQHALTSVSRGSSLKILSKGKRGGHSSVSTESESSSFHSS

[2] = target: T2, SNAP-tag-CXCR4 (Tag-lite labeled CXCR4 cells, Cisbio Bioassays) (UniProt P61073 1-352, Tag-lite label on the SNAP-tag); assay: Tag-lite HTRF competition with 50 nM fluorescent SDF-1 on Tag-lite labeled CXCR4 cells
T2 construct: whole, on cells; Bought labelled cells; also called Tag-lite CXCR4 receptor; labeled SNAP-tag-CXCR4; not shown: SNAP-tag of the bought Tag-lite cells
T2 sequence (P61073 whole entry): as above
Method: (§1) Briefly, 10⁶ Tag-lite labeled CXCR4 cells were thawed at 37° C., centrifuged for 5 min at 1200 g, and re-suspended in 2.7 ml 1×Tag-lite buffer after removal of supernatant.

[3] = target: T2, SNAP-tag-CXCR4 (Tag-lite labeled CXCR4 …); assay: Tag-lite HTRF competition with 50 nM fluorescent SDF-1, Cheng-Prusoff
Method: as §1

[4] = target: T1, Human neutrophil elastase (Elastin …); assay: elastase inhibition assay with fluorogenic substrate MeOSuc-AAPV-AMC (Example 28); y axis read as residual activity

| Binder | inhibition of SDF-1 induced migration of Ramos cells, EC50 [1] [nM] | IC50 [2] [nM] | Ki [3] [nM] | binding result [4] | IC50 (read off the curve) [4] [nM] |
| --- | --- | --- | --- | --- | --- |
| BLV1H12-beta BCCX2 HC 4 IgG (antibody, V domains shown, Peptide grafted into CDRH2; also called bAb-AC4; BVL1H12-beta BCCX2 HC 4) VH: ASGFSLSDKAVGWVRQAPGKALEWLGSIDETKKYQSYRKCRGGRRWCYQKSYTYNYETGYNPGLKSRLSITKDNSKSQVSLSVSSVTTEDSATYYCTSVHQGGGGSWHVDVWGQGLLVTVSS VL: QAVLNQPSSVSGSLGQRVSITCSGSSSNVGNGYVSWYQLIPGSAPRTLIYGDTSRASGVPDRFSGSRSGNTATLTISSLQAEDEADYFCASAEDSSSNAVFGSGTTLTVLG | 3.2 | 4.16 | 0.92 |  |  |
| Human BVK-beta HEI HC 9 (Fab, V domains shown, also called HEI fusion protein) VH: QVQLQESGPGLVRPSQTLSLTCTVSGFSLTGYGVNWVRQPPGRGLEWIGMIWGDGNTDYNSALKSRVTMLKDTSKNQFSLRLSSVTAADTAVYYCTSVHQETKKMCTASIPPQCYYNYEWHVDVWGQGLLVTVSS VL: DIQMTQSPSSLSASVGDRVTITCRASGNIHNYLAWYQQKPGKAPKLLIYYTTTLADGVPSRFSGSGSGTDYTFTISSLQPEDIATYYCQHFWSTPRTFGQGTKVEIKR |  |  |  |  | ~40 |
| BLV1H12-beta BCCX2 HC 2 IgG (antibody, V domains shown, Bovine-human chimera with human IgG1 Fc; also called bAb-AC2) VH: QVQLRESGPSLVKPSQTLSLTCTASGFSLSDKAVGWVRQAPGKALEWLGSIDTGGNTGYNPGLKSRLSITKDNSKSQVSLSVSSVTTEDSATYYCTSVHQETKKYQSYRKCRGPRRWCYQKSYTYNYEWHVDVWGQGLLVTVSS VL: QAVLNQPSSVSGSLGQRVSITCSGSSSNVGNGYVSWYQLIPGSAPRTLIYGDTSRASGVPDRFSGSRSGNTATLTISSLQAEDEADYFCASAEDSSSNAVFGSGTTLTVLG |  | 24.4 | 5.39 |  |  |
| BLV1H12-beta BCCX2 HC 3 IgG (antibody, V domains shown, Bovine-human chimera with human IgG1 Fc; also called bAb-AC3) VH: QVQLRESGPSLVKPSQTLSLTCTASGFSLSDKAVGWVRQAPGKALEWLGSIDTGGNTGYNPGLKSRLSITKDNSKSQVSLSVSSVTTEDSATYYCTSVHQETKKYQSYRKCRGGNGRRWCYQKSYTYNYEWHVDVWGQGLLVTVSS VL: QAVLNQPSSVSGSLGQRVSITCSGSSSNVGNGYVSWYQLIPGSAPRTLIYGDTSRASGVPDRFSGSRSGNTATLTISSLQAEDEADYFCASAEDSSSNAVFGSGTTLTVLG |  | 89.3 | 19.8 |  |  |

Results, then the binder that gave them:

| inhibition of SDF-1 induced migration of Ramos cells, EC50 [1] [nM] | IC50 [2] [nM] | Ki [3] [nM] | binding result [4] | IC50 (read off the curve) [4] [nM] | Binder |
| --- | --- | --- | --- | --- | --- |
|  |  |  | binds |  | Human BVK-beta HEI HC 6 (Fab, V domains shown, also called HEI fusion protein) VH: QVQLQESGPGLVRPSQTLSLTCTVSGFSLTGYGVNWVRQPPGRGLEWIGMIWGDGNTDYNSALKSRVTMLKDTSKNQFSLRLSSVTAADTAVYYCTSVHQEMCTASIPPQCYEWHVDVWGQGLLVTVSS VL: DIQMTQSPSSLSASVGDRVTITCRASGNIHNYLAWYQQKPGKAPKLLIYYTTTLADGVPSRFSGSGSGTDYTFTISSLQPEDIATYYCQHFWSTPRTFGQGTKVEIKR |
|  |  |  | binds |  | Human BVK-beta HEI HC 8 (Fab, V domains shown, also called HEI fusion protein) VH: QVQLQESGPGLVRPSQTLSLTCTVSGFSLTGYGVNWVRQPPGRGLEWIGMIWGDGNTDYNSALKSRVTMLKDTSKNQFSLRLSSVTAADTAVYYCTSVHQETKMCTASIPPQCYNYEWHVDVWGQGLLVTVSS VL: DIQMTQSPSSLSASVGDRVTITCRASGNIHNYLAWYQQKPGKAPKLLIYYTTTLADGVPSRFSGSGSGTDYTFTISSLQPEDIATYYCQHFWSTPRTFGQGTKVEIKR |
|  | 113 | 25.1 |  |  | trastuzumab-beta BCCX2 HC medium (antibody, human IgG1, kappa, V domains shown, also called HMCX) VH: EVQLVESGGGLVQPGGSLRLSCAASGFNIKDTYIHWVRQAPGKGLEWVARIYPTNGYTRYADSVKGRFTISADTSKNTAYLQMNSLRAEDTAVYYCSRETKKYRKCRGGRRWCYQKYNYEDYWGQGTLVTVSS VL: not shown |
|  | 9.36 | 2.07 |  |  | trastuzumab-beta BCCX2 HC long (antibody, human IgG1, kappa, V domains shown, also called HLCX) VH: EVQLVESGGGLVQPGGSLRLSCAASGFNIKDTYIHWVRQAPGKGLEWVARIYPTNGYTRYADSVKGRFTISADTSKNTAYLQMNSLRAEDTAVYYCSRETKKYQSYRKCRGGRRWCYQKSYTYNYEDYWGQGTLVTVSS VL: not shown |
